In general, EC50 refers to the concentration at which the effect is half-maximal. High values mean a less potent agent, low ones a more potent agent. A word on the Kd: it is the constant that tells how readily two partners part at equilibrium. A word on the koff: it is the rate constant with which the complex falls apart. Read a high koff as a short-lived complex. The kon is a measure of how fast the partners come together. A high value points to faster complex formation.

The record followed here is patent US20070286858A1 (Pfizer, published 2007).

One assay deals with T1, murine RAGE, full length (mouse, UniProt Q62151 23-402).
T1 construct: Expressed on 293 cells; also called mRAGE; 293-murine RAGE
T1 chain: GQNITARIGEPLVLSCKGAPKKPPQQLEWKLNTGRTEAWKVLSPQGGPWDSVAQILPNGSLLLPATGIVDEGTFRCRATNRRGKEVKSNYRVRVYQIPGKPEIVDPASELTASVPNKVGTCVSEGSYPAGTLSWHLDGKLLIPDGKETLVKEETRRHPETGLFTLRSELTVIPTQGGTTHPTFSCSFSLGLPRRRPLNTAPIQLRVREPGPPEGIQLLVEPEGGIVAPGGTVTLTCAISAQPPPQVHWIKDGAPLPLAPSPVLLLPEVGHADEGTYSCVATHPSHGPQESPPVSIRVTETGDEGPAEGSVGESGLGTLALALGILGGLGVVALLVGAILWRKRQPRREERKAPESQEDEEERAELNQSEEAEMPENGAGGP
Put plainly: cell-based ELISA, 293 cells transfected with murine RAGE. The protocol: (§1) Human embryonic kidney 293 cells (American Tissue Type Culture, Manassas, Va.) cells were plated at 5×10⁶ cells per 10 cm² tissue culture plate and cultured overnight at 37° C. The next day cells were transfected with RAGE expression plasmids (pAdori1-3 vector encoding mouse, human, baboon, cynomologus monkey or rabbit RAGE) using LF2000 reagent (Invitrogen, Carlsbad Calif.) at a 4:1 ratio of reagent to plasmid DNA using the manufacturers protocol. Cells were harvested 48 hrs post-transfection using trypsin, washed once with phosphate buffered saline (PBS), then suspended in growth media without serum at a concentration of 2×10⁶ cells/ml.
(§2) Primary antibodies at 1 μg/ml were serially diluted at 1:2 or 1:3 in PBS containing 1% bovine serum albumin (BSA) in a 96-well plate. RAGE-transfected 293 cells or control parental 293 cells (50 μl) at 2×10⁶ cells/ml in serum-free growth medium were added to U-bottom 96 well plate for a final concentration of 1×10⁵ cells/well. The cells were centrifuged at 1600 rpm for 2 minutes. The supernatants were gently discarded by hand with a one-time swing and the plate was patted gently to loose the cell pellet. […] The cells were centrifuged and the supernatants are transferred to a fresh plate and read at 450 nm (Soft MAX pro 4.0, Molecular Devices Corporation, Sunnyvale, Calif.).
For orientation: An ELISA detects its analyte on a solid surface through an enzyme-linked reagent.

The target of the next assay is T2, human RAGE, full length (human, UniProt Q15109 23-404).
T2 construct: Expressed on 293 or CHO cells, or endogenous in human lung sections; also called hRAGE; cell-surface hRAGE
Put plainly: cell-based ELISA, 293 cells transfected with human RAGE. The protocol:
as §1, §2

Assay [1] deals with T3, soluble human streptavidin-tagged RAGE (human, UniProt Q15109 23-344).
T3 construct: also called hRAGE-SA; human RAGE-strep
Briefly: BIACORE capture assay, antibody on CM5 chip, hRAGE-SA 0-100 nM in solution. The method, then: The assays were performed by coating antibodies onto a CM5 BIA chip with 5000-7000 RU.
A general note: In SPR one partner is held on a chip, and binding of the other changes the refractive index at the surface.

The next assay addresses T4, baboon RAGE (baboon (Papio cyanocephalus), UniProt Q15109 23-404 (human entry)).
T4 construct: On transfected 293 cells or endogenous in baboon lung sections; also called 293-baboon RAGE; RAGE in baboon lung
T4 chain: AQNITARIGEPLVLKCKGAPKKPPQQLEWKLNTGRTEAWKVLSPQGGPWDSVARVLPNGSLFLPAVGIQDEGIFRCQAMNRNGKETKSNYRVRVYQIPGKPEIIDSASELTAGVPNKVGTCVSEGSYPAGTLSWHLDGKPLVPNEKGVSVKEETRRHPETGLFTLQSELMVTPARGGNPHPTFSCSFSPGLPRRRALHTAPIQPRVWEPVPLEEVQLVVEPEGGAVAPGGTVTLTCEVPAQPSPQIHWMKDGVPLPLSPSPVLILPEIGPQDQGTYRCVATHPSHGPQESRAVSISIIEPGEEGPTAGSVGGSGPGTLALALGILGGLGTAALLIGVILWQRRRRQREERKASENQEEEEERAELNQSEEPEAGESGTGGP
Put plainly: cell-based ELISA, 293 cells transfected with baboon RAGE. The protocol: as §1, §2

For assay [2], the target named is T5, human RAGE-Fc fusion protein (human, UniProt Q15109 23-344).
T5 construct: also called hRAGE-Fc; huRAGE-Fc; not shown: Fc domain of human IgG
Briefly: ligand competition ELISA, panel Blocks hRAGE-Fc interaction with A-beta; blocked ligand amyloid beta 1-42 peptide.

The target of assay [3] is T5, human RAGE-Fc fusion protein. Put plainly: BIACORE direct binding, hRAGE-Fc immobilized. The protocol:
The binding of selected murine and rat anti-RAGE antibodies to human and murine RAGE and to the V domains of human and murine RAGE was analyzed by BIACORE® direct binding assay. […] Solution of the anti-RAGE antibodies at two concentrations, 50 and 100 nm, were run over the immobilized RAGE-Fc proteins in duplicate. BIACORE™ technology utilizes changes in the refractive index at the surface layer upon binding of the anti-RAGE antibodies to the immobilized RAGE antigen. Binding is detected by surface plasmon resonance (SPR) of laser light refracting from the surface.
The kinetic rate constants (kₐ and kd) and association and dissociation constants (Kₐ and Kd) for the binding of murine and rat anti-RAGE antibodies to human and murine RAGE were determined by BIACORE™ direct binding assay. Analysis of the signal kinetics data for on-rate and off-rate allows the discrimination between non-specific and specific interactions.

B1: XT-M4 (antibody, rat IgG2b, V domains shown)
VH: EVQLVESGGGLVQPGRSLKLSCVVSGFTFNNYWMTWIRQTPGKGLEWVASINNSGDNTYYPDSVKDRFTISRDNAKSTLYLQMNSLRSEDTATYYCTRGGDITTGFDYWGQGVMVTVSS
VL: DIQMTQSPSSMSVSLGDTITITCRASQDVGIYVNWFQQKPGKSPRRMIYRATNLADGVPSRFSGSRSGSIYSLTISSLESEDVADYHCLEFDEHPLTFGSGTKVEIK
notes: also called 1mRAGEP3/10; rat XT-M4
For B1, the half-maximal effective concentration (EC50) with murine RAGE, full length was roughly 2.2 nM. Also, the EC50 in the assay with human RAGE, full length is roughly 0.84 nM. Besides, in assay [1], the Ka is 2.03e+08 M⁻¹, binding was characterised by a dissociation constant (Kd) of 4.92 nM, the koff turned out to be 0.0186 s⁻¹ and the kon worked out at 3.78e+06 M⁻¹ s⁻¹. The same molecule had a concentration giving a half-maximal response (EC50) with baboon RAGE of roughly 1.33 nM. Besides, in assay [2], the “IC50 (read off the curve)” value is roughly 0.2 µg/mL. For the same molecule, in assay [3], the Ka came out at 1e+09 M⁻¹, the Kd amounted to 0.995 nM, the dissociation rate constant (koff) was found to be 0.00116 s⁻¹ and the kon was found to be 1.16e+06 M⁻¹ s⁻¹.
